Patent US9766250B2, “Method for detecting protein-protein interaction” (MEDICAL & BIOLOGICAL LABORATORIES CO., LTD., priority 2011, dated 2017)

B1: monomeric Kusabira-Orange 2 (protein)
chain: MVSVIKPEMKMRYYMDGSVNGHEFTIEGEGTGRPYEGHQEMTLRVTMAEGGPMPFAFDLVSHVFCYGHRVFTKYPEEIPDYFKQAFPEGLSWERSLEFEDGGSASVSAHISLRGNTFYHKSKFTGVNFPADGPIMQNQSVDWEPSTEKITASDGVLKGDVTMYLKLEGGGNHKCQMKTTYKAAKEILEMPGDHYIGHRLVRKTEGNITEQVEDAVAHS
modifications: Synethetic sequence of monomeric version pf KO(Kusabira-Orange)
B2: dimeric Azami-Green (AB) (protein)
chain: MVSVIKPEMKIKLCMRGTVNGHNFVIEGEGKGNPYEGTQILDLNVTEGAPLPFAYDILTTVFQYGNRAFTKYPADIQDYFKQTFPEGYHWERSMTYEDQGICTATSNISMRGDCFFYDIRFDGVNFPPNGPVMQKKTLKWEPSTEKMYVRDGVLKGDVNMALLLEGGGHYRCDFKTTYKAKKDVRLPDAHKVDHRIEILKHDKDYNKVKLYENAVARYSMLPSQAK
modifications: Synthetic sequence dAG(AB)
B3: dimeric Azami-Green (AC) (protein)
chain: MVSVIKPEMKIKLCMRGTVNGHNFVIEGEGKGNPYEGTQILDLNVTEGAPLPFAYDILTTVFQYGNRAFTKYPADIQDYFKQTFPEGYHWERSMTYEDQGICTATSNISMRGDCFFYDIRFDGTNFPPNGPVMQKKTLKWEPSTEKMYVRDGVLKGDVNMALLLEGGGHYRCDFKTTYKAKKDVRLPDYHFVDHRIEILKHDKDYNKVKLYENAVARYSMLPSQAK
modifications: Synthetic sequence dAG(AC)
B4: Kusabira-Cyan1 (protein)
chain: MVSVIKPEMKMRYYMDGSVNGHEFTVEGEGTGRPYEGKHKITLDVTKGGPLPFAFDLLSTVFSYGNRALTKYPDDIPDYFKQCFPGGYSWERKFEFEDGGLAIAKAEISLKGNCFEHKSTIEGTFPDSSPIMQNKTLGWEPSTEKMTVRDGSMKGDDAAYLKLVGGGNHKCYFTTTYTAKKKIPNLPGSHFIGHRISSVVEGTKIKVMEDAIAHLYPFNGS
modifications: Synthetic sequence KCy1
B5: COR3.01: fluorescent protein capable of homotetramerization, SEQ ID NO: 151 (protein)
chain: MALSKHGLTKNMTTKYRMEGCVDGHKFVITGDGIGDPFEGKQTSIDLCVVEGGPLPFSEDILSTVFDYGNRVFTKYPQDLVDYFKNSCPAGYTWQRSFLFEDGAVCTASADIRVSVEENCFYHESKFHGVNFPADGPVMKKMTTNWEPSCEKITPILNEGILKGDVTMFLLLKDGGRYRCQFDTVYKAKADAKKMPEWHFIQHELTREDRSDAKHQKWRLVENAIAYRSTLP
modifications: Synthetic sequence COR3.01
B6: TGuv: fluorescent protein capable of homotetramerization, SEQ ID NO: 147 (protein)
chain: MVSVIGKDMIMKLHVEGCVNGHSFKIEGDGKGKPYEGDQTVKLRVTEGGPLPFAFDILSASMCYGNRCFTKYPAEIPDIFKQTFPEGYSWERALTFEDGGFASSSSHISVRGNCFFYDVKYHGVNFPSNGPIMQRKTIGWQPSTEKLYIGEGTLKGDDTMFLKLEGGGTHKCHVLTTYKTKKDVQMPDSHFIDHRLLTSHLDKECNNVELREHAVARNSSLPSR
modifications: Synthetic sequence TGuv
B7: monomericMidoriishi-Cyan1 (protein)
chain: MVSYSKQGIAQEMRTKYRMEGSVNGHEFTIEGVGTGNPYEGKQTSELVIIKPKGKPLPFSFDILSTVFQYGNRCFTKYPADMPDYFKQAFPDGMSYERSFLFEDGGVATASWSIRLEGNCFIHNSIYHGTNFPADGPVMKKQTIGWDKSSEKMSVAKEVLRGDVTQFLLLEGGGYQRCQLHSTYKTEKPVAMPPSHVVEHQIVRTDLGQTAKGFKVKLEEHAEAHVNPLKVK
modifications: Synthetic sequence mMiCy1
B8: Momiji: fluorescent protein capable of homotetramerization, SEQ ID NO: 149 (protein)
chain: MVSVIKDEMKVNLRMEGSVNGHDFVIDGLGSGKPKEGTQTIELKVVKGGPLPFAYDILTTAFHYGNRVFAKYPKDIPNYFEQSFPEGYSWERSMIFEDGGICIARNDITMDGGTFYNKVRFYGVNFPPNGPVMQKKTQKWEQSTEKMYARDGVLTGDINMALLLKGGGHYRCDFRTTYKAKEKGVKLPGYHFIDHCIEILSHRNDYNNVTLFEHAVARSGLQDKEKQQQ
modifications: Synthetic sequence Momiji

Tests used:
[1] = target: T1, mTOR(FRB) and FKBP12 interaction (Homo sapiens, UniProt P42345+P62942); test: Degree of fluorescent focus (assembly) formation after rapamycin, fluorescent proteins fused to mTOR(FRB) (Example 8, Table 1); format: cell-based; parameters: key to degree of fluorescent focus formation, Tankyrase (SAM): +++: fluorescent foci were observed in 50% or more of the HeLaS3 cells; ++: fluorescent foci were observed in 50% or less of the HeLaS3 cells; +: fluorescent foci were observed in 293T cells expressing a larger amount of proteins than that in the HeLaS3 cells; conditions: fluorescent protein fused to mTOR(FRB); for degree of fluorescent focus formation, DGKd (SAM): with FKBP12-DGKd(SAM); for degree of fluorescent focus formation, TEL (SAM): with FKBP12-TEL(SAM); for degree of fluorescent focus formation, Tankyrase (SAM): with FKBP12-Tankyrase(SAM), some combinations in 293T cells; for degree of fluorescent focus formation, P62 (PB1): with p62(PB1)-FKBP12
T1 construct: region having the 2025th to 2114th amino acids of the mTOR protein; expressed in transfected cells; host or cells: HeLaS3; 293T for some combinations with FKBP12-Tankyrase(SAM)
Protocol: Note that plasmid DNAs encoding fusion proteins composed of mTOR(FRB) and the corresponding fluorescent proteins were prepared as appropriate by the same method as that described in Example 2. Moreover, regarding the combinations of FKBP12-Tankyrase(SAM) with mKO2, mKeima, mMiCy1, mKO1, MiCy1, and TGuv, the test was conducted by introducing the genes into 293T cells. Specifically, the 293T cells were cultured in DMEM High glucose (manufactured by SIGMA ALDRICH CO.) containing 10% FBS (manufactured by Equitech-Bio Inc.). Moreover, the 293T cells were seeded onto an 8-well chamber (manufactured by Nunc A/S) 6 hours before the plasmid DNAs were introduced. Further, at the time of the transfection, 200 ng of the plasmid DNA encoding FKBP12-Tankyrase(SAM) and 200 ng of one of the plasmid DNAs encoding fusion proteins composed of the fluorescent proteins and mTOR(FRB) were diluted with 30 μl of OptiMEM (manufactured by Life Technologies Corporation), and 1.2 μl of TurboFect Transfection Reagent (manufactured by Thermo Fisher Scientific Inc.) was added thereto and stirred. Then, the resultant was further mixed with 300 μl of the culture solution, subsequently added to the 293T cells, and observed 48 hours later.

[2] = target: T1, mTOR(FRB) and FKBP12 interaction; test: Degree of fluorescent focus (assembly) formation after rapamycin with TFG(PB1) (Example 9, Table 2); format: cell-based; parameters: key: ++: fluorescent foci were observed in 50% or less of the HeLaS3 cells; +: fluorescent foci were observed in the 293T cells expressing a larger amount of proteins than that in the HeLaS3 cells; conditions: fluorescent protein fused to mTOR(FRB), KO1 and dAG (AB) in 293T cells

T1 sequence (P42345 2025-2114): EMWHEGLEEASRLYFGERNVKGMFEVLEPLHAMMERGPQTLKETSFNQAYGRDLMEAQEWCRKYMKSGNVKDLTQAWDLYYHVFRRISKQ
T1 sequence (P62942 whole entry, the tested form may be a part): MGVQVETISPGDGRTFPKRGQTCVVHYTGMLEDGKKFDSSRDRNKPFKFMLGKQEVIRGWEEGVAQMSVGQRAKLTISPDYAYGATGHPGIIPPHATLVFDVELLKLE

Molecule	degree of fluorescent focus formation, DGKd (SAM) [1]	degree of fluorescent focus formation, TEL (SAM) [1]	degree of fluorescent focus formation, Tankyrase (SAM) [1]	degree of fluorescent focus formation, P62 (PB1) [1]	degree of fluorescent focus formation, TFG (PB1) [2]
B1	+++ (fluorescent foci were observed in 50% or more of the HeLaS3 cells)	++ (fluorescent foci were observed in 50% or less of the HeLaS3 cells)	+	+++ (fluorescent foci were observed in 50% or more of the HeLaS3 cells)	
B2	+++ (fluorescent foci were observed in 50% or more of the HeLaS3 cells)	+++ (fluorescent foci were observed in 50% or more of the HeLaS3 cells)	++ (fluorescent foci were observed in 50% or less of the HeLaS3 cells)	+++ (fluorescent foci were observed in 50% or more of the HeLaS3 cells)	+
B3	+++ (fluorescent foci were observed in 50% or more of the HeLaS3 cells)	+++ (fluorescent foci were observed in 50% or more of the HeLaS3 cells)	++ (fluorescent foci were observed in 50% or less of the HeLaS3 cells)	+++ (fluorescent foci were observed in 50% or more of the HeLaS3 cells)	++ (fluorescent foci were observed in 50% or less of the HeLaS3 cells)
B4	+++ (fluorescent foci were observed in 50% or more of the HeLaS3 cells)	+++ (fluorescent foci were observed in 50% or more of the HeLaS3 cells)	++ (fluorescent foci were observed in 50% or less of the HeLaS3 cells)	+++ (fluorescent foci were observed in 50% or more of the HeLaS3 cells)	
B5	+++ (fluorescent foci were observed in 50% or more of the HeLaS3 cells)	+++ (fluorescent foci were observed in 50% or more of the HeLaS3 cells)	+++ (fluorescent foci were observed in 50% or more of the HeLaS3 cells)	+++ (fluorescent foci were observed in 50% or more of the HeLaS3 cells)	++ (fluorescent foci were observed in 50% or less of the HeLaS3 cells)
B6	+++ (fluorescent foci were observed in 50% or more of the HeLaS3 cells)	+++ (fluorescent foci were observed in 50% or more of the HeLaS3 cells)	+	+++ (fluorescent foci were observed in 50% or more of the HeLaS3 cells)	
B7	+++ (fluorescent foci were observed in 50% or more of the HeLaS3 cells)	+++ (fluorescent foci were observed in 50% or more of the HeLaS3 cells)	+	+++ (fluorescent foci were observed in 50% or more of the HeLaS3 cells)	
B8	+++ (fluorescent foci were observed in 50% or more of the HeLaS3 cells)	+++ (fluorescent foci were observed in 50% or more of the HeLaS3 cells)	+++ (fluorescent foci were observed in 50% or more of the HeLaS3 cells)	+++ (fluorescent foci were observed in 50% or more of the HeLaS3 cells)	++ (fluorescent foci were observed in 50% or less of the HeLaS3 cells)
